Among the data in US20100256055A1 (ANGIOCHEM, published 2010) are IC50 and fold weaker binding than native NT values, retold here.

Square brackets hold non-standard residues; d marks the D form. pGlu = O=C1CC[C@@H](C(=O)O)N1

Assay [1] addresses NT receptor NTSR1 (high affinity NTSR1 receptor) on HT29 cells (human) (UniProt P30989). As to the kind of experiment: competition with [3H]-NT on HT29 cells expressing NTSR1.
In assay [2] the target is T1, NT receptor NTSR1 (high affinity NTSR1 receptor) on HT29 cells (human, UniProt P30989 1-418).
T1 construct: whole, on cells; also called neurotensin receptor type 1; NTR1
T1 sequence (P30989 whole entry): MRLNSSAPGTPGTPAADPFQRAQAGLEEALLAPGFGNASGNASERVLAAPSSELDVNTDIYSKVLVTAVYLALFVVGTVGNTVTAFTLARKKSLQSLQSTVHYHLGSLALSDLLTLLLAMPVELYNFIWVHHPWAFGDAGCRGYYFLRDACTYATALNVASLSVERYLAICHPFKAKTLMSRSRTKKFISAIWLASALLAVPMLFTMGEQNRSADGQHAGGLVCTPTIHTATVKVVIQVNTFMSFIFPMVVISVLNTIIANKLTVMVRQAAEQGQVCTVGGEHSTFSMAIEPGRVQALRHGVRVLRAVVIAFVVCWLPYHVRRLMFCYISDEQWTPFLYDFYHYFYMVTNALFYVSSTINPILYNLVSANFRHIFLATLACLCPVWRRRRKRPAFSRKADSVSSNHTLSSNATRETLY
The description is as above.

Sequence of NT receptor NTSR1 (high affinity NTSR1 receptor) on HT29 cells (human) (P30989 whole entry): as above

“Ac-Lys-[D-Tyr^11]NT(8-13) (Ac-KRRPD-YIL-OH) (peptide)”: in assay [1], the IC50 came to 5390 nM and the fold weaker binding than native NT is over 1000 fold.

B1: pGlu-LysNT(8-13) (peptide)
peptide: [pGlu]KRRPYIL-OH
SMILES: CC[C@H](C)[C@H](NC(=O)[C@H](Cc1ccc(O)cc1)NC(=O)[C@@H]1CCCN1C(=O)[C@H](CCCNC(=N)N)NC(=O)[C@H](CCCNC(=N)N)NC(=O)[C@H](CCCCN)NC(=O)[C@@H]1CCC(=O)N1)C(=O)N[C@@H](CC(C)C)C(=O)O
notes: Structure printed only as drawing CHEM-US-00006; The chain is built from the name, and Mw 1056.26 fits pGlu-KRRPYIL; also called pE-Lys-NT(8-13); pGlu-NT(8-13)
For the molecule B1, the IC50 in assay [2] came out at 1.3 nM.

B2: Ac-LysNT(8-13) (peptide)
peptide: Ac-KRRPYIL-OH
notes: Structure printed only as drawing CHEM-US-00004; The chain is built from the name, and Mw 987.20 fits Ac-KRRPYIL
As to B2, in assay [2], the IC50 is 1 nM. The IC50 values of the last two molecules are within 1.5-fold of each other.
